{
  "source": "the nanobody polyreactivity screen of Harvey et al. (2022)",
  "data": [
    {"assay": "yeast display, Sf9 membrane polyspecificity reagent, FACS + sequencing; frameworks hold sequencing errors", "procedure,_shortened": "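Galactose-induced (36–48 hours) yeast carrying a synthetic nanobody display library were exposed to 10% biotinylated, detergent-solubilized Sf9 membrane reagent at 4 °C for 1 hour. FACS followed streptavidin microbead enrichment, using low and high (top ~1%) gates for expression (anti-HA) and reagent binding (streptavidin). Colony PCR, MiSeq 2 × 250 sequencing and CDR-length filtering followed. Labels for polyreactivity reflect the gate of origin.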", "values": [
      {"sequence": "QVQLVESGGGLVQAGGSLRLSCAASGSIFPGFAMGWYRQAPGKERELVAAISTSGGNTYYADSVKGRFTISRDNAKNTVYLQMNSLKPEDTAVYYCAVRHRLYTAGYDYWGQGTQVTVSS", "polyreactivity (PSR sort gate)": "low polyreactivity"},
      {"sequence": "QVQLVESGGGLVQAGGSLRLSCAASGSIFPGYAMGWYRPAPGKDRELVATIPWSGGSTYYADSVKGRFTISRDNENNTVYLQMNSLKPEDTAVYYCYADSYWYYQWYYYGLYDYWGAGTQVTVSS", "polyreactivity (PSR sort gate)": "low polyreactivity"},
      {"sequence": "QVQLVESGGGLVQAGGSLRLSCAASGSIFPGYAMGWYRQAPGKERELVATITWSGGSTYYADSVKGRFTISRDNAKNTVYLQMNSLKPADTAVYYCNADSNWYYQWNYYGLYDYWGQGTQVTVSS", "polyreactivity (PSR sort gate)": "low polyreactivity"},
      {"sequence": "QVQLVESGGGLVQAGGSLRLSCAASGSIFPGYAMGWYRQAPGNERELVAAISSGGNTHYADSVKGRFTISRDNAKNTVYLQMNSLKPEDTAVYYCAASYDYTYYWGQGTQVTVSS", "polyreactivity (PSR sort gate)": "low polyreactivity"},
      {"sequence": "QVQLVESGGGLVQAGGSLRLSCAASGSIFPGYARGWYRQAPGKERELVATITWSGGSTYYADSVKGRFTISRDNAKNTVYLQMNILIPEDTAVYYCNADSNWYYQWNYYGLYDYWGQGNQVTVSS", "polyreactivity (PSR sort gate)": "low polyreactivity"},
      {"sequence": "QVQLVESGGGLVQAGGSLRLSCAASGSIFPHNAMGWYRQAPGKERELVAAISTSGGRTYYADSVKGRFTISRDNAKNTVYLQMNSLKPVDTAVYYCNARSVRSRYDYWGQGTQVTVSS", "polyreactivity (PSR sort gate)": "high polyreactivity"},
      {"sequence": "QVQLVESGGGLVQAGGSLRLSCAASGSIFPHYAMGWYRQAPGKERELVASITYDGDSTYYADSVKGRFTISRDNAKNTVYLQMNSLKPEDTAVYYCAADYYYVYSSFGHYYWGQGTQVTVSS", "polyreactivity (PSR sort gate)": "low polyreactivity"},
      {"sequence": "QVQLVESGGGLVQAGGSLRLSCAASGSIFPIYAMGWYRQAPGKERELVAAIDSSGGSTYYADSVKGRFTISRDNAKNTVYLQMNSLKPEDTAVYYCAADFGSKSTPYDYWGQGTQVTVSS", "polyreactivity (PSR sort gate)": "low polyreactivity"},
      {"sequence": "QVQLVESGGGLVQAGGSLRLSCAASGSIFPLYAMGWSRQAPGKERELVAAITWRGGSTYYADSVKGRFTITRDNAKNTVYLQMNSLKPEDTAVYYCNRDLVPRFDYWGQGTQVTVSS", "polyreactivity (PSR sort gate)": "low polyreactivity"},
      {"sequence": "QVQLVESGGGLVQAGGSLRLSCAASGSIFPLYVMGWYRQAPGKERELVAAISSAADTYYADSVKGRFTISRDNAKNTVYLQMNSLKPEDTAVYYCAAAVLYWVGYGYWGQGTQVTVSS", "polyreactivity (PSR sort gate)": "low polyreactivity"},
      {"sequence": "QVQLVESGGGLVQAGGSLRLSCAASGSIFPPYALGWYRQAPGKERELVAAIDWGGSSTYYADSVKGRFTISRDNAKYTVYLQMNSLKPEATAVYYCAAEVVHGYYLYEYWGQGTQVTVSS", "polyreactivity (PSR sort gate)": "high polyreactivity"},
      {"sequence": "QVQLVESGGGLVQAGGSLRLSCAASGSIFPPYAMGWYRQAPGKERELVATITIRGGSTYYADSVKGRFTISRDNAKNTVYLEMNSLKPDDTAVYYCAADYTKYYRSYYYWGQGTQVTVSS", "polyreactivity (PSR sort gate)": "high polyreactivity"},
      {"sequence": "QVQLVESGGGLVQAGGSLRLSCAASGSIFPPYTMGWFRQAPGKELELVATISSTGITNYADSVKGRFTNSRDNAKNTVYLQMNSLKQEDTAVYYCAAGLWYSFDYWGQGTQVTVSS", "polyreactivity (PSR sort gate)": "high polyreactivity"},
      {"sequence": "QVQLVESGGGLVQAGGSLRLSCAASGSIFPPYVMGWYRQAPGKERELVASITTSGGSTYYADSVKGRFTISRDNAKNTVYLQMNSLKPEDTAVYYCAARWYYGGKSAGPGGGYWGQGTQVTVSS", "polyreactivity (PSR sort gate)": "low polyreactivity"},
      {"sequence": "QVQLVESGGGLVQAGGSLRLSCAASGSIFPRDAMGRYRQAPGKERELVAAITGSGSSTYYADSVKGRFTISRDNAKNTVYLQMNSLKPEDTAVYYCNTARPTAAYDYWGQGTKVTVSS", "polyreactivity (PSR sort gate)": "low polyreactivity"},
      {"sequence": "QVQLVESGGGLVQAGGSLRLSCAASGSIFPRNAMGWSRQAPGKERELVARINSGGTTKYADSVKGRFTISRDNAKNTVYLQMNSLKPEDTAVYYCNADTYILDPLRKSYGYDYWGQGTQVTVSS", "polyreactivity (PSR sort gate)": "low polyreactivity"},
      {"sequence": "QVQLVESGGGLVQAGGSLRLSCAASGSIFPRNAMGWYRQAPGKERELVAAITVSDGRTYYADSVKGRFTISRDNAKNTVYLQMNSLKPEDTAVYYCAAGYTYYSLYGYWGQGTQVTVSS", "polyreactivity (PSR sort gate)": "low polyreactivity"},
      {"sequence": "QVQLVESGGGLVQAGGSLRLSCAASGSIFPRYAMGWYRQAPGKERELVATISQSGGSTYYADSVKGRFTISRDSAKNTVYLQMNSLKPEDTAVYYCAAKVYRSAYYVGKYYPYYYWGQGTQVTVSS", "polyreactivity (PSR sort gate)": "high polyreactivity"},
      {"sequence": "QVQLVESGGGLVQAGGSLRLSCAASGSIFPSNAMGWYRQAPGKERELVAAISSSGGRTYYADSVKGRFTISRDNAKNTVYLQMNSLKPEDTAVYYCAAKYTVYGVGYYYWGQGTQVTVSS", "polyreactivity (PSR sort gate)": "high polyreactivity"},
      {"sequence": "QVQLVESGGGLVQAGGSLRLSCAASGSIFPSNAMGWYRQAPGKERELVAAISWSGDITYYADSVKGRFTISRDNAKNTVYLQMNSLKPEDTAVYYCAADTPIAGYWYNYWGQGTQVTVSS", "polyreactivity (PSR sort gate)": "low polyreactivity"},
      {"sequence": "QVQLVESGGGLVQAGGSLRLSCAASGSIFPSYAMGWYRQAPGKERELVAAISSGGTTNYADSVKGRFTISLDNAKNTVYLQMNSLKPEDTAVYYCAAVRGDSEDRYDHWGQGTQVTVSS", "polyreactivity (PSR sort gate)": "high polyreactivity"},
      {"sequence": "QVQLVESGGGLVQAGGSLRLSCAASGSIFPSYAMGWYRQAPGKERELVAAISSRGGSTYYADSVKGRFTISRDNAKNTVYLQMNSLKPEDTAVYYCAADWSYYRRHFDYWGQGTQVTVSS", "polyreactivity (PSR sort gate)": "high polyreactivity"},
      {"sequence": "QVQLVESGGGLVQAGGSLRLSCAASGSIFPSYAMGWYRQAPGKERELVAAISTWNDGGTYYADSVKGRFTISRDNGKNTVYLQMNSLKPEDTAVYYCAADSPKYYYDYDYWGQGTQVTVSS", "polyreactivity (PSR sort gate)": "low polyreactivity"},
      {"sequence": "QVQLVESGGGLVQAGGSLRLSCAASGSIFPTNAMGWYRQAPGKERELVAAITSGGGTNYADSVMGRFTISRDNAKNTVYLQMNSLKTEDTAVYYCAADRYVEYGYWGQGTQVTVSS", "polyreactivity (PSR sort gate)": "low polyreactivity"},
      {"sequence": "QVQLVESGGGLVQAGGSLRLSCAASGSIFPVYAMGWYRQAPGKERELVAAINSSGGTTYYADSVKGRFSNSRDNAKNTVYLQMNSLKPEDTAVYYCAAEICTSSYLAKTYDYWGQGTQVTVSS", "polyreactivity (PSR sort gate)": "low polyreactivity"},
      {"sequence": "QVQLVESGGGLVQAGGSLRLSCAASGSIFPYNAMGWYRQAPGKEMELVATISSGGSTNYADSVKGRFTISRDNAKNTVYLQMNSLKPEDTAVYYCAADVIVFYYAPNYWGDIEYGYWGQGTQVTVSS", "polyreactivity (PSR sort gate)": "low polyreactivity"},
      {"sequence": "QVQLVESGGGLVQAGGSLRLSCAASGSIFPYNAMGWYRQAPGKERELVAAISKRGGSTYYADSVKGRFTISRDNAKNTVYFQMNSLKPEDTAVYYCAARYPPYRSWYSYDYWGQGTQVTVSS", "polyreactivity (PSR sort gate)": "low polyreactivity"},
      {"sequence": "QVQLVESGGGLVQAGGSLRLSCAASGSIFPYNAMGWYRQAPGKERELVATINSRGGRTYYADSVKGRFTISRDNAKNTVYLQMNSLKPEDTAVYYCARYYSSALRYGYWGQGTQVTVSS", "polyreactivity (PSR sort gate)": "low polyreactivity"},
      {"sequence": "QVQLVESGGGLVQAGGSLRLSCAASGSIFPYNAMGWYRQAPGKERELVATISSGGSTNYADSVKGRFTISRDNAKNTVYLQMNSLKPEDTAVYYCATDDFWNVKFYAYYPEFDYWGQGTQVTVSS", "polyreactivity (PSR sort gate)": "low polyreactivity"},
      {"sequence": "QVQLVESGGGLVQAGGSLRLSCAASGSIFPYVNAMGWYRQAPGKERELVASIPGGGGTKYADSVKGRFTISRDNAKNTVYLQMNSLKPEDTAVYYCNATSGNPASTAWMNYWGQGTQVTVSS", "polyreactivity (PSR sort gate)": "low polyreactivity"},
      {"sequence": "QVQLVESGGGLVQAGGSLRLSCAASGSIFPYYALGRYRQAPGKERELVADITSSGGSTYYADSVKGRFTISRDNAKNTVYLQMNSLKPEDTAVYYCAALYWFYVYPFTEYDYWGQGTQVTVSS", "polyreactivity (PSR sort gate)": "low polyreactivity"},
      {"sequence": "QVQLVESGGGLVQAGGSLRLSCAASGSIFPYYAMGWYIQAPGKERELVAVITTSGGRTYYADSVKGRFTISRDNAKNTVYLQMNSLKPEDTAVYYCATDVRQGSGWRYYYWGQGTQVTVSS", "polyreactivity (PSR sort gate)": "high polyreactivity"},
      {"sequence": "QVQLVESGGGLVQAGGSLRLSCAASGSIFPYYAMGWYRKAPGKERELVAAISSSGGSTTYADSVKGRFTISRDHAKNTVYLQMNSLKPEDTAVYYCAALTYRRSSGGFDYWGQGTQVTVSS", "polyreactivity (PSR sort gate)": "high polyreactivity"},
      {"sequence": "QVQLVESGGGLVQAGGSLRLSCAASGSIFPYYAMGWYRPAPGKERELVAVISRGGGRTYYADSVKGRFTISRDNAKITVYLQMNSLKPEDTAVYYCYAGYPYGGDYWGQGTQVTVSS", "polyreactivity (PSR sort gate)": "high polyreactivity"},
      {"sequence": "QVQLVESGGGLVQAGGSLRLSCAASGSIFPYYAMGWYRQAPGKERELVAAITGAGSTNYADSVKGRFTISRDNAKNTVYLQRNSLKPEDTAVYYCAADFGSPDKWRDWYDYWGQGTQVTVSS", "polyreactivity (PSR sort gate)": "low polyreactivity"},
      {"sequence": "QVQLVESGGGLVQAGGSLRLSCAASGSIFPYYAMGWYRQAPGKERELVASISRSVGSTFYADSVKGRFTISRDNAKNTVYLQMNSLKPEDTAVYYCAVRYFAQFGDYDYWGQGTQVTVSS", "polyreactivity (PSR sort gate)": "high polyreactivity"},
      {"sequence": "QVQLVESGGGLVQAGGSLRLSCAASGSIFPYYAMGWYRQAPGKERELVATITYRGGSTNYADSVKGRFTISRDNAKNTVYLQMNSLNPEDTAVYYCAAYGYVLASPYPYSFVKLGYWGQGTQVTVSS", "polyreactivity (PSR sort gate)": "low polyreactivity"},
      {"sequence": "QVQLVESGGGLVQAGGSLRLSCAASGSIFPYYAMGWYRQATGKERELVATITSRGGSTYYADSVKGRFTISRDNAKNTVYLQMNSLIPEDTAVYNCAKEYRYYRRRYDYWGQGTQVTVSS", "polyreactivity (PSR sort gate)": "high polyreactivity"},
      {"sequence": "QVQLVESGGGLVQAGGSLRLSCAASGSIFPYYTMGWYRQAPGKERELVAAITTSDSSTYYADSVKGRFTISRDNAKNTVYLQMNSLKPEDTAVYYCAARYSLYPYYAYDDAYRLYRLRGRDYWGQGTQVTVSS", "polyreactivity (PSR sort gate)": "low polyreactivity"},
      {"sequence": "QVQLVESGGGLVQAGGSLRLSCAASGSIFQAYAMGWYRQAPGKERELVAAITASGTRTYYADSVKGRFTISRDNAQNTVYLQMNSLKPEDTAVYYCAAGTYRWGFGVRSAMDYWGQGTQVTVSS", "polyreactivity (PSR sort gate)": "high polyreactivity"}
    ]}
  ]
}
